Measurements reported in patent publication US20230265148A1.
Values joined by “and” are separate entries in the source; they are usually repeats but may differ in a detail not shown here. Equal entries are not always repeated.

Molecular target: human IL-2 receptor αβγ trimer on CHO-K1 cells (CHO-K1 hIL-2R αβγ 2D6) (human) (UniProt P01589)
Experiment: FACS on CHO-K1 hIL-2R αβγ 2D6 cells

UniProt P01589, sequence (P01589 22-272 limits assumed, chain 1 of 3): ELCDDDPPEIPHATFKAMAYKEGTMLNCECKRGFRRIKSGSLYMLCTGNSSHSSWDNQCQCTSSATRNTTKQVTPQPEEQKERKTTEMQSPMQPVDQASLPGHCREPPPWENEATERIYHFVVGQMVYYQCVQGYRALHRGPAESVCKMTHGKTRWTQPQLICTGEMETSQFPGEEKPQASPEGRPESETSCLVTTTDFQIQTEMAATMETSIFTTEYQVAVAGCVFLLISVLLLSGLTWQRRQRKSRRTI
UniProt P01589, sequence (chain, as listed by the source limits assumed, chain 2 of 3): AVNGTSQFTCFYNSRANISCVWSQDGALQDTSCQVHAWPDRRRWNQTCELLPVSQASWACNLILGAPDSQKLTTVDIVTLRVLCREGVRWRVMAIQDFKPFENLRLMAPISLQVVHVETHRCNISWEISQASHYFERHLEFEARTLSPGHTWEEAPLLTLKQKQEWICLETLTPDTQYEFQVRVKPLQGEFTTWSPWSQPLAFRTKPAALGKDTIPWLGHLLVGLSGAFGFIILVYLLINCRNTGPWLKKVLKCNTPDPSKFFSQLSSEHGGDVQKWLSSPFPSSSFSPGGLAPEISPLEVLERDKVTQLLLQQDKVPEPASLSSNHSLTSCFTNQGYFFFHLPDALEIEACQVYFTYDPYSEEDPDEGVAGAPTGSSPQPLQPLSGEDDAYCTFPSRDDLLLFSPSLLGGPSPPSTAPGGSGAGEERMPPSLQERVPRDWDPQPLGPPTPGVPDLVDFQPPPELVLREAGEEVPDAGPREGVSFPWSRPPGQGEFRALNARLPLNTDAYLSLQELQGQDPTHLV
UniProt P01589, sequence (chain, as listed by the source limits assumed, chain 3 of 3): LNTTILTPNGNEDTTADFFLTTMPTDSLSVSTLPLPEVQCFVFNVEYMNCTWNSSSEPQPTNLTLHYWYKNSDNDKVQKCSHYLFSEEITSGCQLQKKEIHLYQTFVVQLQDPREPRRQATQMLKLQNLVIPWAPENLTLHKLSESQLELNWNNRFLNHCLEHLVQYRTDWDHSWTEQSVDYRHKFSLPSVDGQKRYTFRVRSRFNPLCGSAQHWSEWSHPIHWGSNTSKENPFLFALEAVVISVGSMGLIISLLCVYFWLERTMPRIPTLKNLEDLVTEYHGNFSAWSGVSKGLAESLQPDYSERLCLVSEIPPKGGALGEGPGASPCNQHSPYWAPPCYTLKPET

## Human IgG control (antibody)
  MFI at 0.0003 nM: 146 MFI
  MFI at 0.0017 nM: 120 MFI and 140 MFI
  MFI at 0.0085 nM: 119 MFI and 145 MFI
  MFI at 0.0427 nM: 274 MFI and 144 MFI
  MFI at 0.2133 nM: 181 MFI and 139 MFI
  MFI at 1.0667 nM: 157 MFI and 138 MFI
  MFI at 5.3333 nM: 124 MFI and 136 MFI
  MFI at 26.667 nM: 118 MFI and 187 MFI
